Values quoted from earlier work, collected in paper PMC11381289.
Where two headings read alike, the source gives them in different places.

Key:
[1] = target: TL (Mus musculus) (UniProt P14432)
[2] = target: TL (Mus musculus) (UniProt P14432); remark: listed apart in the source

Sequence of UniProt P14432 (P14432 27-314): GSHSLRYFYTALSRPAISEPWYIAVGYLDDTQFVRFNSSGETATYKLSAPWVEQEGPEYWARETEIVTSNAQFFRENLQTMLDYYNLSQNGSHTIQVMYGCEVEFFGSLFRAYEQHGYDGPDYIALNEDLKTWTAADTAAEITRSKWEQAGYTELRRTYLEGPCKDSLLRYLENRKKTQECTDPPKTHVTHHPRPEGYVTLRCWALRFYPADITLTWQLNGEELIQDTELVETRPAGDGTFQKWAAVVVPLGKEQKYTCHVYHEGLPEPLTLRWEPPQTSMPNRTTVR

Kd [1] | Kd [2] | Substance
12 µM |  | CD8αα (from UniProt P01731)
 | > 90 µM | CD8αβ (from UniProt P01731)
